According to patent publication US6051698, “Vascular endothelial growth factor (VEGF) nucleic acid ligand complexes”:

How the values were obtained:
VEGF165 [1] = target: T1, VEGF165 (Homo sapiens, UniProt P15692-4 P15692-4:27-191); assay: filter; 37 C; conditions: tags: R&D Systems, expressed in Sf21 insect cells, carrier-free; chain copies: 2
Description: Nucleic Acid Ligands radiolabeled during transcription by incorporation of α-[^32P]-labeled NTPs, or after synthesis using γ-[^32P]-ATP and T4 polynucleotide kinase, were incubated in low concentration (between 20 and 70 pM) with varying concentrations of VEGF or other growth factors at 37° C. for 15 minutes. Incubations were in TBS, PBS, or HEPES-buffered saline (HBS), pH 7.4, with or without the addition of supplemental divalent cations. Samples were passed through prewashed 0.45μ Type HA filters (Millipore) followed by a 5–10 ml wash with binding buffer. Filters were immersed in scintillant and counted to quantitate the amount of protein-bound RNA retained by each filter. The equilibrium dissociation constant (K_D) of Nucleic Acid Ligand binding to a specific protein was calculated from thc data points as described in Green et al. (1996) Biochem. 35: 14413–14424.

VEGF165 [2] = target: T1, VEGF165; assay: filter; EDTA, no divalents; Mg2+ does not rescue, Ca2+ fully restores; conditions: tags: R&D Systems, expressed in Sf21 insect cells, carrier-free; chain copies: 2

T1 sequence (P15692 other isoform, or with tags, fused parts or gaps): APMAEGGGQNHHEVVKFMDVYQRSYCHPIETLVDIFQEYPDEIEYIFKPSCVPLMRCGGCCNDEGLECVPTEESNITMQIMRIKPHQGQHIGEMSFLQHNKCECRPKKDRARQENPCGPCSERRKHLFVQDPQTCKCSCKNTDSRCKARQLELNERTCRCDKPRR

B1: t22 (ssRNA)
RNA: GACGAUGCGGUAGGAAGAAUUGGAAGCGCT
modifications: 2'-F pyrimidines, 2'-OH purines, 3'-3' dT cap [30 (3'-3' dT cap); 2'-F pyrimidines 3,6,8,11,20,21,27,29]
Kd (VEGF165 [1]): 0.07 nM

GACGAUGCGGUAGGAAGAAUUGGAAGCGC (ssRNA, 2'-F pyrimidines, 2'-OMe purines except 2'-OH at A12, G22) [t22OMe (OH-12,22)]
Kd (VEGF165 [1]): 0.09 nM

B2: t22e (ssRNA)
RNA: GGUAGGAAGAAUUGGAAGCGCT
modifications: 2'-F pyrimidines, 2'-OH purines, 3'-3' dT cap [22 (3'-3' dT cap); 2'-F pyrimidines 3,12,13,19,21]
Kd (VEGF165 [1]): 0.2 nM

CGGAAUCAGUGAAUGCUUAUACAUCCG (ssRNA, 2'-F pyrimidines, 2'-OMe purines except two 2'-OH purines) [t44OMe]
Kd (VEGF165 [2]): > 100 nM

B3: t2 (ssRNA)
RNA: GGCGAACCGAUGGAAUUUUUGGACGCUCGCCT
modifications: 2'-F pyrimidines, 2'-OH purines, 3'-3' dT cap [32 (3'-3' dT cap); 2'-F pyrimidines 3,7,8,11,16,17,18,19,20,24,26,27,28,30,31]
Kd (VEGF165 [1]): 0.02 nM
